This is an account of results in paper doi:10.1101/2024.06.17.599268 (bioRxiv, 2024).

By Kd is commonly meant the concentration at which binding is half-saturated. What is called stoichiometry N is a count of units in the complex or per binding partner.

Residue numbers refer to the chain shown, from its start. Names may count otherwise.

T1: Rab8a_(1-176) (human, UniProt P61006 1-176)
T1 sequence: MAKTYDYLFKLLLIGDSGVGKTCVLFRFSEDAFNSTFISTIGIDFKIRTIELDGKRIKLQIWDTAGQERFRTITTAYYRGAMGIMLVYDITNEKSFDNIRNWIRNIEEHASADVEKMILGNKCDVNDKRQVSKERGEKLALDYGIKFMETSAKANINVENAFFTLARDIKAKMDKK

T2: Mical1 MO-CH-LIM (residues 1-781) (human, UniProt Q8TDZ2 1-781)
T2 sequence: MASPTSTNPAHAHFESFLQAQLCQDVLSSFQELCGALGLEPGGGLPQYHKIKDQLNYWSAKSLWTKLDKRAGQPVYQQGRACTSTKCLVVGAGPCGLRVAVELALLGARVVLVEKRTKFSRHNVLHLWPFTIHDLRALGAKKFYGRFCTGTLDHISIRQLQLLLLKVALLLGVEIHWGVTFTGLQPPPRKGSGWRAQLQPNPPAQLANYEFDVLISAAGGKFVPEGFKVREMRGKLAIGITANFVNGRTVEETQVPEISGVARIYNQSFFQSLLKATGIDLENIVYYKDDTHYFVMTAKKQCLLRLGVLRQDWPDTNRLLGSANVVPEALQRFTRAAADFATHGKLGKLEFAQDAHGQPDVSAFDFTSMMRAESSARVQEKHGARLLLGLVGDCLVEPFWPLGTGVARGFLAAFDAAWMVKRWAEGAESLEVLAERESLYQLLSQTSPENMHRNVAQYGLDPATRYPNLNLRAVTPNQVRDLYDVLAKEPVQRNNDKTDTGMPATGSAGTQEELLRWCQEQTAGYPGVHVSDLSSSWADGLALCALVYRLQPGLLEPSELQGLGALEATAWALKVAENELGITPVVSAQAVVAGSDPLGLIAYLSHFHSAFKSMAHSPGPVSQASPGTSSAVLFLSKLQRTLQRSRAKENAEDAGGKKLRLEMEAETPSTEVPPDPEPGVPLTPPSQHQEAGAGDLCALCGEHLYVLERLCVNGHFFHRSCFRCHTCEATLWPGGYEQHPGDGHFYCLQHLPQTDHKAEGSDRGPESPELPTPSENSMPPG

B1: Mical1 bMERB domain (residues 918-1067) (domain or fragment)
chain: KEEEMKRFCKAQTIQRRLNEIEAALRELEAEGVKLELALRRQSSSPEQQKKLWVGQLLQLVDKKNSLVAEEAELMITVQELNLEEKQWQLDQELRGYMNREENLKTAADRQAEDQVLRKLVDLVNQRDALIRFQEERRLSELALGTGAQG
B2: bMERB K918A_E921A (domain or fragment)
chain: B1 chain with K1A, E4A
B3: bMERB L974A_L975A (domain or fragment)
chain: B1 chain with L57A, L58A
B4: bMERB L977A_V978A (domain or fragment)
chain: B1 chain with L60A, V61A
B5: bMERB F925A (domain or fragment)
chain: B1 chain with F8A
B6: bMERB_(L1047A_F1050A) (domain or fragment)
chain: B1 chain with L130A, F133A
B7: bMERB R1044A (domain or fragment)
chain: B1 chain with R127A
B8: bMERB L956S (domain or fragment)
chain: B1 chain with L39S
B9: bMERB E939A (domain or fragment)
chain: B1 chain with E22A
B10: bMERB V1038A (domain or fragment)
chain: B1 chain with V121A
B11: bMERB W970A (domain or fragment)
chain: B1 chain with W53A
B12: bMERB_(M992A_I993A) (domain or fragment)
chain: B1 chain with M75A, I76A
B13: bMERB L1011S (domain or fragment)
chain: B1 chain with L94S
B14: bMERB I1048A (domain or fragment)
chain: B1 chain with I131A
B15: bMERB V1041A (domain or fragment)
chain: B1 chain with V124A
B16: bMERB_(V985A) (domain or fragment)
chain: B1 chain with V68A
B17: bMERB_(V1041A_I1048A) (domain or fragment)
chain: B1 chain with V124A, I131A
B18: Rab15_(1-176) (natural protein)
chain: MAKQYDVLFRLLLIGDSGVGKTCLLCRFTDNEFHSSHISTIGVDFKMKTIEVDGIKVRIQIWDTAGQERYQTITKQYYRRAQGIFLVYDISSERSYQHIMKWVSDVDEYAPEGVQKILIGNKADEEQKRQVGREQGQQLAKEYGMDFYETSACTNLNIKESFTRLTELVLQAHRKE
B19: Rab10_(1-175) (natural protein)
chain: MAKKTYDLLFKLLLIGDSGVGKTCVLFRFSDDAFNTTFISTIGIDFKIKTVELQGKKIKLQIWDTAGQERFHTITTSYYRGAMGIMLVYDITNGKSFENISKWLRNIDEHANEDVERMLLGNKCDMDDKRVVPKGKGEQIAREHGIRFFETSAKANINIEKAFLTLAEDILRKTP

One assay has as its target B18. In words: SEC. In general terms: In gel filtration, larger molecules generally elute earlier.
B1: the binding result is listed as “binds”.

A further assay concerns the target B19. In words: SEC.
For B1, the binding result is “binds”.

A further assay deals with T1, Rab8a_(1-176). Put plainly: SEC.
With B2, the binding result is on record as “binds”.

As to B3, the binding result is recorded as “binds”. In the case of B4, the binding result is “binds”.

Take B5: the binding result was “binds”. B6: the binding result is recorded as “binds”. The same measure, in the same setting: the result for B7 reads “binds”; that for B8, “binds”; that for B9, “binds”. In the case of B1, the binding result is given as “binds”. The same measure, in the same setting: the result for B10 reads “binds”; that for B11, “binds”.

For B12, the binding result is “binds”. Consider B13, for which the binding result is “binds”. On the same count and under the same terms, the result for B14 reads “binds”; that for B15, “binds”.

The target in the next assay is T2, Mical1 MO-CH-LIM (residues 1-781). Put plainly: ITC. (In general: Isothermal titration calorimetry measures the heat released or taken up as one component is titrated into another.)
With B2, the “fold reduction in affinity against wild-type bMERB” value (“fold reduction in affinity” below) was 2 fold. Take B3: the “fold reduction in affinity” value was determined as 6 fold.

For B4, the “fold reduction in affinity” value amounted to 6 fold. As for B8, the “fold reduction in affinity” value is more than 9 fold. As to B9, the “fold reduction in affinity” value was more than 5 fold.

As to B11, the “fold reduction in affinity” value was 4 fold. With B12, the “fold reduction in affinity” value was more than 25 fold. Still for that read-out and setting: as for B16, the figure is 10 fold. Take B17: the binding result was “binds”.

For the next assay, the target named is Mical1 MO-CH-LIM (residues 1-781) (human) (UniProt Q8TDZ2). Put plainly: ITC.
The molecule “Mical1 bMERB domain (residues 918-1067) (from UniProt Q8TDZ2 918-1067) (domain or fragment)” registered a Kd of 2700 nM and a stoichiometry N of 1.

The target of a further assay is T1, Rab8a_(1-176). In words: ITC.
Regarding B16, the binding result is given as “binds”.

The target in a further assay is B1. In words: ITC.
For B18, the “KD of the high-affinity site (Ct-RBS2)” value worked out at 2.5 nM, the “KD of the low-affinity site (Nt-RBS1)” value amounted to 2910 nM and the “stoichiometry N” value worked out at 2.

As for B19, the “KD of the high-affinity site (Ct-RBS2)” value turned out to be 11 nM, the “KD of the low-affinity site (Nt-RBS1)” value was 3730 nM and the “stoichiometry N” value turned out to be 2.
